Test: yeast display, Sf9 membrane polyspecificity reagent, FACS + sequencing; frameworks hold sequencing errors
Method in brief: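 Sorting gates, low and high (top ~1%), were placed on anti-HA fluorescence to track expression and on streptavidin fluorescence to track reagent binding. A clone's polyreactivity label is taken from the gate it came out of. The reagent was 10% biotinylated, detergent-solubilized Sf9 membrane, applied for 1 hour at 4 °C to galactose-induced yeast display cells.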

Sequence | polyreactivity (PSR sort gate)
QVQLVESGGGLVQAGGSLRLSCAASGSTFPVYAMGWYRQAPGKERELVASISSGGSTYYADSVKGRFTISRDNAKNTVYLQMNSLKPEDTAVYYCAKDPWVESFVIYDYWGQGTQVTVSS | low polyreactivity
QVQLGESGGGLVQAGGSLRLSCAPTGRTFVRNAIGWYRPAPGKERELVAAISYSGGSTTYADSVKGRFTISRDNAKNTVYLQMNSLKPADTAVYYCAKKPPVGEPSGREYWGQGTQVTVSS | low polyreactivity
QVQLVESGGGLVQAGGSLRLSCAASGSTFPRYAMGWYRQAPGKERELVAAISRSGTSTYYADSVKGRFTISRDNAKNTVYLQMNSLKPEDTAVYYCAAEYHPRVLYPNWYDYWGQGTQVTVSS | low polyreactivity
QVQLIESGGGLVQAGGSLRLSCAASGRTFRRYAMGWYRQAPGKERELVAAIDASGGSTYYADSVMGRFTISRDTSKNTVYLQMTILKQEDSAVSYCNTCSGQLQLQGGRHEYWGQGTQVTVSS | high polyreactivity
QVQLVESGGGLFQAGGSLRLSCAASGRIFSDYAMGWYRQAPGKERELVATITSGDSTNYADSVKGRFTISRDNAKNTVYLQMNSLKPEDTAVYYCNADRFADYDYWGQGTQVTVSS | low polyreactivity
QVQLVESGGGLVQAGGSLRLSCAASGSTFGYNAMGWYRQAPGKEREFVATIRYSGDRTYYADSVKGRFTISRDNAKNTVYLQMNSLKPEDTAVYYCAADLYYNSYGRYGRYYYWGQGTQVNVSS | high polyreactivity
QVQLVESGGGLVQAGGSLRLSCAASGSTYGYAMGWYRQAPGKERELVAAISSSGGRTYYADSVKGRFTISRDNAKNTVYLQMNSLKPEDTAVYYCAAGGFSQHGHGYWGQGTQVTVSS | high polyreactivity
QVQLVESGGGLVQAGGSLRLSCAASGRIFPDYDMGWYRQAPGKERELVAAITQRGGSTYADSVKGRFTISRDNAKNTVYLQMNSLKPEDTAVYYCAREYYEGYEYWGQGTQVTVSS | low polyreactivity
QVQLEESGGGLVQAGGSLRLSCAASGRIFYRYAMGWYRQAPGKERELVAAISSGGSTYYADSVKGRFTISRDNAKNTVYLQMNSLKPDDTAVYYCAATWGRGTYYLYYYWGQGTQVTVSS | high polyreactivity
QVQLLESGGGLVQAGGSLRLSCAASGSIFLFYDMGLYRHAPGKERELVATITSGTNTYADSVKGRFTISRDNAKNTGYLQMNSLKPEDTAVYSCAAGFSTASQLDYWGQVTQVTVSS | low polyreactivity
QVQLVESGGGLVQAGGSLRLSCAASGRLFRHNAMGWYRQAPGKERELVAVISRSTGSTYYADSVKGRFTISRYNAKNTVYLQMNSLKPEDTAVYYCDAKYGSGQRYDYWGQGTQVTVSS | high polyreactivity
QVQLVESGGGLVQAGGSLRLSCAASGSTFYTNAMGWYRQAPGKERELVAAISASVGSTYYADSVKGRFTISRDNAKNTVYLQMNSLKPEDTAVYYCAADRGFYYEYDYWGQGTQVTVSS | low polyreactivity
QVQLVESGGGLVQAGGSLRLSCAASGRISQGYAMGWYRQAPGKERELVPGISRSGGSTYYADSVKGRFTISPDNAKNTVYLQMHSLKPEDTAVYYCAAQSWYGFPNYYWGQGSQVTVSS | high polyreactivity
QVQLVESGGGLVQAGGRLRLSCAASGRTFGYNFMGWYRQAPGKERELVAAISSSGGSTYYADSVKGRFTISRDNGMNTVYLQMNSLKREDTAVYYCNARRGRASGMDYWGQGTQVTVSS | high polyreactivity
QVQLVESGGGLVQAGGSLRLSCAATGFTFGSNVMGWYRQAPGKERELVATIRRGGSTNYADSVKGRFTISRDNAKNTVYLQLNSLKPEDTAVYYCATRYREWGQGTQVTVSS | high polyreactivity
QVQLVESGGGLVQAGGSLRLSCAASGSTFYSYAMGWYRQAPGKEREFVAAIRYSGGRTYADSVKGRFTISRDNAKNTVYLQMNSLKPEDTAVYYCAAVYYSYRWPYDYWGQGTQVTVSS | high polyreactivity
QVQLVESGGGLVQAGGSLRLSCAASGRISAYNAMGWYRQAPGKERELVAGISTRTGSTYYADSVKGRFTISRDNAKNTVYLQMNSLKPEDTAVYYGAAYFWGVYFFGMDYWGQGTQVTVSS | low polyreactivity
QVQLVESGGGLVQAGGSLRLSCAASGRTFVEYAMGWYRPAPGKERELVAAITWDGGSTYYADSVKGRFTISRDNAKYTVYLQMNSLKPEDTAVYYCNADYRQITSYGFDYWGQGTQVTVSS | low polyreactivity
QVQLVESGGGLVQAGGSLRLSCAASGFIFKNYAMGWYRQAPGKERELVAAITSSGGNTYYADSVKGRFTISRDNAKNTVYLQMNSLKPEDTAVYYCNARFRTLYWGQGTQVTVSS | high polyreactivity
QVQLVESGGGLVQAGGSLRLSCAASGSIFVSYAMGWYRQAPGKERELVAAISISDGSTYADSVKGRFTISRDNAKNTVYLQMNSLKPEDTAVYYCATYLVYDYAYVAYDYWGQGTQVTVSS | low polyreactivity
QVQLVESGGGLVQAGGSLRLSCAASGRTFYYYAMGWYRQAPGKERELVAAISWSGGSTYYADSVKGRFTISRDNAKNTVYLQMNSLKPEDTAVYYCAARLPENSFGLYYYWGQGTQVTVSS | high polyreactivity
QVQLVESGGGLVQAGGSLRLSCAASWYTMGWYRQAPGKERELVAAITGGGSTNYADSVKGRFTISRDNAKNTVYLQMNSLKPEDTAVYYCAKTRVLLNSYSYNIIYDYWGQGTQVTVSS | low polyreactivity

Sequence | polyreactivity (PSR sort gate)
QVQLVESGGGLVQAGGSLRLSCAASGRTFRVNTMGWYRQAPGQEWELVAAITSSDRTYYADSVKGRFTISRDNAKNTVYLQMNSLKPDDTAVYYCAAYSEYYGVYYWGQGTQVTVSS | low polyreactivity
QVQLQESGGGLVQEGGSLRLSCAASGNISPPADMGWYRQAPGKERELVASIGTGGTTNYADSVKGRFTISRDNAKNTVYLQMNSLKPDDTAVYYCAAVRYEYNPYDYWGEGTQVTVSS | low polyreactivity
QVQLVESGRGLVQAGGSLRLSCAASGFIFRTYVMGWSRQATGKERELVAAITSSGGSTYYADSVKGRFTISRDTAKNTVYLQMNSLIPEDTAVYYCNAYPVYGRYTHYGYGHWGQGTQVTVSS | high polyreactivity
QVQLQVSGGGLVQAGGSLRLSCEASGSIFLTSEMGWYRQAPGIERELVAAIATGTSTNYADSVKGRFTISRDNAKNTVYLQMNSLKPEDTAVYYCATYHYWGQGTQVTVSS | low polyreactivity
QVQLVESGGGLVQAGGSLRISCAASGFTLSYYAMGWYRQAPGKERELVASISAIGGITYYADSVKGRFTISRDNAKNTVYLQMNSLKPEDTAVYYCARQGRRYRRFDSWGQGTQVTVSS | high polyreactivity
QVQLVESGGGLVQAGGSLRLSCAASGSTFLGNVMGWYRQAPGKERELVAAITSTGGNTYYADSVKGRFTISRDNAKNTVYLQMNSLKPEDTAVYYCAKKYVWTHNYWGQGTQVTVSS | low polyreactivity
QVQLVESGGRLVQAGGSLRLSCAASGSTITPNSMGWYRQAPGKERELVAAITTGGSTKYADSVKGRFTISRDNAKKTVYLQLTSLNPADTAVYYCNTDRGAYFYVIWPPWTYDWGQGTQVTVTS | low polyreactivity
QVRLVESGGGLVQAGGSLRLSCAASGSIFSPYAMGWYRQAPGKERELVAALSYGVGNTYYADSVKGRFTISRDNAKNTVYLQMNSLKPEDTAVYYCAAEEYDYVYPHYFTKGYYWGQGTQVTVSS | high polyreactivity
QVQLVESGGGLVQAGGSLRLSCSASGSIFNYYTMGWDRQAPGKERELVAVITWSDDSTYYADSVKGRFTISRDNAKNTVYLQMNSLKPEDTAVYYCNARSWGWYRIAYGYWGQGTQVTVSS | low polyreactivity
QVQLVESGGGLVQAGGSLRLSCAASGFTFQINTMGWYRQAPGKERELVAAINYSGGSTYYADSVKGRFTISRDNAKNTDYLQMNSLKPEDTAVYYCATDHYRNPWRWYRYGYWGQGTQVTVSS | low polyreactivity
RVQLQESGGGLVQAGGSLRLSCAASGTIFIRGDMGWYRQAPGKEREFVATIETGSNTYYADSEKGRFTISRDNAKNAVYLEMNCLKPGDTAVYYCVVDYQLSGRLRYWGQGTQVTLSS | low polyreactivity
QVQLVESGGGLVQAGGSLRLSCAASGSTFATYTMGWYRQAPGKERELVAAITRGSNTYYADSVKGRFTISRDNAKNTVDLQMNSLKPEHTAVYYCAAGYSGYRKYNSWGQGTQVTVSS | high polyreactivity
QVQLVESGGGLVQAGGSLRLSCAASGSTFSGNAMGWYRQAPGKERELVAAITSSGGSTYYADSVKGRFTISRDNAKNTVYLQMNSLKPEDTAVYYCAADGQYYYGFDYWGQGTQVTVSS | high polyreactivity
QVQLVESGGGLVQAGGSLRLSCAASGSTFWINAMGWYRPAPGKEREFVAAIRWNGGSTNYADSVKGRFTHSRDNAKNTVYLPMNSLKPEDTAVYYCAADGYIGWRHIYEYWGQGTQVTVSS | low polyreactivity
QVQLVESGGGLVQAGGSLRLSCAASGRTFYAYAMGWYRQAPGKERELVAAINTSGGRTYYADSVKGRFTISRDNAKNTVYLQMNSLKPEDTAVYYCAADVYTFYPRRYDYWGQGTQVTVSS | low polyreactivity
QVQLVESGGGLVQAGGSLRLSCAASGRTFWYNAMGWYRQAPGKERELVAAITSSGGSTYYADSVKGRFTISRDNAKNTVYLQMNSLKPEDTAVYYCNKRPGPYKWPPRHDYWGQGTQVTVSS | low polyreactivity
QVQLVESVGGLVQAGGSLRLSCAASGRTFRNNAMGWYRQAPGTEREFVAVISNTGGSTYYADSVKGRFTISRDNAKNTVYLQLNSLKPEDTAVYYCAVRPRYSQYYYWGQGTQVTVSS | high polyreactivity
QVQLVESGGGLVQAGGSLRLSCAASGFTFQYYAMGWYIQAPGKERELVATITTSGGNTYYADSVKGRFTISRDNAKNTVYLQMNSLKPEDTAVYYCAARRYRASSRGYGYWGQGTQVTVSS | high polyreactivity
QVQHVESVGGLVQAGGSLRLSCAASGSTFARYVMGWYRQAPGKEWELVAVISRSGGSTYYADSVKGRFTISRDNAKNTVYLQMNSLKPEDTAVYYCNARSSNYWWYYYWGQGTQVTVSS | high polyreactivity
QVQLVESGGGLVQAGGSLRLSCAASGRTFYQYTMGWYRQAPGKERELVATISDSTNYADSVKGRFTISRDNAKNTVYLQMNSLKPEDTAVYYCNARVRGLGKYESWGQGTQVTVSS | low polyreactivity
QVQLVESGGGLVQAGGSLRLSCAASGSIFRAYALGWYRQAPGEERELVAAISWRAGRTYYADSVKGRFTISRDNAKNTVYLQMNSLKPEDTAVYYCAARKRAQQGTRDHDYWGQGTQVTVSS | high polyreactivity
